Measured values taken from IntAct's records for PubMed 21135508.

B1: Myotubularin (Homo sapiens), Q13496 (parent)
chain: MASASTSKYNSHSLENESIKRTSRDGVNRDLTEAVPRLPGETLITDKEVIYICPFNGPIKGRVYITNYRLYLRSLETDSSLILDVPLGVISRIEKMGGATSRGENSYGLDITCKDMRNLRFALKQEGHSRRDMFEILTRYAFPLAHSLPLFAFLNEEKFNVDGWTVYNPVEEYRRQGLPNHHWRITFINKCYELCDTYPALLVVPYRASDDDLRRVATFRSRNRIPVLSWIHPENKTVIVRCSQPLVGMSGKRNKDDEKYLDVIRETNKQISKLTIYDARPSVNAVANKATGGGYESDDAYHNAELFFLDIHNIHVMRESLKKVKDIVYPNVEESHWLSSLESTHWLEHIKLVLTGAIQVADKVSSGKSSVLVHCSDGWDRTAQLTSLAMLMLDSFYRSIEGFEILVQKEWISFGHKFASRIGHGDKNHTDADRSPIFLQFIDCVWQMSKQFPTAFEFNEQFLIIILDHLYSCRFGTFLFNCESARERQKVTERTVSLWSLINSNKEKFKNPFYTKEINRVLYPVASMRHLELWVNYYIRWNPRIKQQQPNPVEQRYMELLALRDEYIKRLEELQLANSAKLSDPPTSPSSPSQMMPHVQTHF

Variants of: B1
Conditions: with desm_human DES

| Variant | effect of a mutation on the interaction |
| --- | --- |
| P205L | disrupting interaction |
| R184G | disrupting interaction |
| D278A | disrupting interaction |
| R241C | disrupting interaction |
